Target: full-length USP8 (a.a. 7-1110) phosphorylated at S718 by AMPK (human) (UniProt P40818)
Assay: SEC-MALLS

Sequence of full-length USP8 (a.a. 7-1110) phosphorylated at S718 by AMPK (human) (P40818 7-1110): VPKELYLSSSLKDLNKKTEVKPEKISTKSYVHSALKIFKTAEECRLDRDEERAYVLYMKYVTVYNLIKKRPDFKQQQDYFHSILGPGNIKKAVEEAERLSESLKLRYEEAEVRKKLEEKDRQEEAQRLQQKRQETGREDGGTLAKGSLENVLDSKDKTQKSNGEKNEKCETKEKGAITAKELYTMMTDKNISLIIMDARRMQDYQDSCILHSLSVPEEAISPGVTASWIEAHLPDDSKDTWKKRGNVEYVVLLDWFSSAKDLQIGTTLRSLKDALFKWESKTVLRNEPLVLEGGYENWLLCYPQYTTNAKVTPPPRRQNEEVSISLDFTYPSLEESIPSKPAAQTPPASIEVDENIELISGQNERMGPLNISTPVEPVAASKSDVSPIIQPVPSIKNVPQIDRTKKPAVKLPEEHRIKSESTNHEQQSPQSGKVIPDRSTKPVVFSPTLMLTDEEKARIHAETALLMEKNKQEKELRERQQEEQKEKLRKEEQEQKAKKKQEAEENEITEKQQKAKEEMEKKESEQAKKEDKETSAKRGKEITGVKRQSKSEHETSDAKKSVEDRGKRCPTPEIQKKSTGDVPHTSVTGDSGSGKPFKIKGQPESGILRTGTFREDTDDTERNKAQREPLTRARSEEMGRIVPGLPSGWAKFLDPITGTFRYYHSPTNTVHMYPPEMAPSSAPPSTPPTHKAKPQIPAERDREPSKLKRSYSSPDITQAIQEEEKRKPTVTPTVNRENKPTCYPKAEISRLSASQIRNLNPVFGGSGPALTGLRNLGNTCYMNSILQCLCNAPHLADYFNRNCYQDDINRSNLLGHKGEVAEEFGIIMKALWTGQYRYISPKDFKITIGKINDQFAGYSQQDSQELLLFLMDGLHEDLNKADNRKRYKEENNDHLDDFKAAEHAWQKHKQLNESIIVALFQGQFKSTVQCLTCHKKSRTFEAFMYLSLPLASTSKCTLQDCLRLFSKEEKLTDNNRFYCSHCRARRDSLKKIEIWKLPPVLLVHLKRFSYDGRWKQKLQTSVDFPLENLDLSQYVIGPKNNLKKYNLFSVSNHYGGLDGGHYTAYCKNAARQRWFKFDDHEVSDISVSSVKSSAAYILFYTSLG

“14-3-3γ (from UniProt P61981 1-247) (natural protein)” gave a stoichiometry N (14-3-3γ dimer per USP8) of 1.
